According to US20160122389A1 (PHARIS BIOTEC, published 2016):
No end group written: not given here.

B1: peptide of SEQ ID NO 16 (408-423) (peptide)
peptide: LVRYTKKVPQVSTPTL
notes: Chemically synthesized fragment of human serum albumin (HSA)

Legend:
[1] = target: T1, CXC chemokine receptor 4 (CXCR4) (human, UniProt P61073 1-352); test: cell-based or functional assay
eGFP-CXCR4 = target: T2, eGFP-CXCR4 (UniProt P61073 1-352); test: competition with 100 nM CXCL12-TexasRed on cells expressing eGFP-CXCR4, real-time fluorescence
T2 construct: whole, on cells; not shown: EGFP part of the fusion
T2 sequence (P61073 whole entry, the tested form may be a part): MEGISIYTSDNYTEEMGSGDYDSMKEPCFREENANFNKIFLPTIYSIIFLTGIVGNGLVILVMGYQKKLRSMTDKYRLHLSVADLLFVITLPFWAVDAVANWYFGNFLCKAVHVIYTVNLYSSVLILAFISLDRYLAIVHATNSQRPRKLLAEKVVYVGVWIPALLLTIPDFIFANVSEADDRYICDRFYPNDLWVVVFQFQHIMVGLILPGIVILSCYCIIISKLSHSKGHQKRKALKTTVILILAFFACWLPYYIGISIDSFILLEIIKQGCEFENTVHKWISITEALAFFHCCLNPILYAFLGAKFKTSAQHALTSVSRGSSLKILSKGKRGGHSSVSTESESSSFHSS
Protocol: Experiments were performed using cells stably expressing eGFP-CXCR4, suspended in HEPES-bovine serum albumin buffer (10 mM HEPES, 137.5 mM NaCl, 1.25 mM MgCl₂, 1.25 mM CaCl₂, 6 mM KCl, 10 mM glucose, 0.4 mM NaH₂PO₄, 0.1% bovine serum albumin (w/v), pH 7.4) (typically at 10⁶ cells/mL). Time-based recordings of the fluorescence emitted at 510 nm (excitation at 470 nm) were performed at 21° C. using a spectrofluorimeter and sampled every 0.3 s. Fluorescence binding measurements were initiated by adding at 30 s 100 nM of CXCL12-TR to the 1 mL cell suspension. For competition experiments, EGFP-CXCR4 expressing cells were preincubated for 10 min in the absence or presence of various concentrations of unlabelled drugs. Then, CXCL12-TR (100 nM) was added and fluorescence was recorded until equilibrium was reached (300 s). Data were analyzed using Kaleidagraph 3.08 software (Synergy Software, Reading, Pa., USA).

[2] = target: T1, CXC chemokine receptor 4 (CXCR4); test: cell-based or functional assay; remark: listed apart in the source

T1 sequence (P61073 whole entry): as the sequence (P61073 whole entry, the tested form may be a part) above

Binder | IC50 (µM), blocking of X4 tropic HIV-1 NL4-3 infection [1] | Ki (eGFP-CXCR4) | mean 50% inhibitory concentration (IC50) of infection by X4 HIV-1 strains [2]
LVRYTKKVPQ [408-417] | 19.8 µM | – | –
IVRYTKCVPQVS [408I-419 K414C] | 5.87 µM | – | –
LVRYTKKV [408-415] | 25.7 µM | – | –
LLVRYTKKVPQVS [407-419] | 11.1 µM | – | –
IVRYTKCVPQVS (also: homodimer, disulfide between Cys of the two monomers) [408I-419 K414C x2] | 1.05 µM | – | –
IVRWCKKVPQVS [408I-419 WC03] | 1.82 µM | – | –
LVRYAKKV [408-415-T412A] | 11.2 µM | – | –
IVRWSKKVPQCS (also: homodimer, disulfide between Cys of the two monomers) [408I-419 WSC01 x2] | 0.18 µM | – | –
LVRYTKKVPQVSTPT [408-422] | 13.4 µM | – | –
IVRYSKKVPQC (also: homodimer, disulfide between Cys of the two monomers) [408I-418 SC x2] | 0.39 µM | – | –
IVRWSKKVPCVS (also: homodimer, disulfide between Cys10 of two monomers) [408I-419 WSC02 x2] | 0.12 µM | – | –
LARYTKKV [408-415-V409A] | 32.9 µM | – | –
IVRWTCKVPQVS [408I-419 WC02] | 2.1 µM | – | –
IVRWTKKVPQVS [408I-419 Y411W] | 1.54 µM | – | –
IVRSTKKVPQVS [408I-419 Y411S] | > 100 µM | – | –
IVRWSKKVPCVS [408I-419 WSC02] | 0.31 µM | – | –
IVRWTKKVPQVC (also: homodimer, disulfide between Cys of the two monomers) [408I-419 WC01_x2] | 0.4 µM | – | –
IVRWTCKVPQVS (also: homodimer, disulfide between Cys of the two monomers) [408I-419 WC02 x2] | 0.32 µM | – | –

Binder | IC50 (µM), blocking of X4 tropic HIV-1 NL4-3 infection [1] | Ki (eGFP-CXCR4) | mean 50% inhibitory concentration (IC50) of infection by X4 HIV-1 strains [2]
IVRWSKKVCQVS [408I-419 WSC03] | 1.51 µM | – | –
IVRWTKKVPQVC [408I-419 WC01] | 1.65 µM | – | –
LVRYTKKVPQVS [408-419] | 5.49 µM | – | –
IVRFTKKVPQVS [408I-419 Y411F] | 3.89 µM | – | –
IVRYTKKVPQCS (also: homodimer, disulfide between Cys of the two monomers) [408I-419 V418C x2] | 0.46 µM | – | –
LVRYTKKVPQVST [408-420] | 15.3 µM | – | –
IVRWSKKVPQCS [408I-419 WSC01] | 0.87 µM | – | –
B1 | 8.63 µM | 3000 nM | 15.8 µg/mL
IVRYSKKVPQVS [408I-419 T412S] | 2.09 µM | – | –
IVRYTKKVPQVS [408I-419] | 2.48 µM | – | –
IVRYSKKVPQC [408I-418 SC] | 2.94 µM | – | –
IVHYTKKVPQVS [408I-419 R410H] | > 100 µM | – | –
IVKYTKKVPQVS [408I-419 R410K] | > 100 µM | – | –
IVRWCKKVPQVS (also: homodimer, disulfide between Cys of the two monomers) [408I-419 WC03 x2] | 0.6 µM | – | –
IVRYTKKVPQCS [408I-419 V418C] | 3.69 µM | – | –
LVRYTKKVPQV [408-418] | 26.8 µM | – | –
LVRYTKKVPQVSTP [408-421] | 14 µM | – | –
